According to patent US20160053277A1, “Compositions Having Dicamba Decarboxylase Activity and Methods of Use” (PIONEER HI-BRED INTERNATIONAL, INC., priority 2013, published 2016):

Tests used:
[1] = Product analysis of reactions of purified His-tag protein with dicamba (14C assay, GC/MS, LC-MS/MS); assay type: biochemical; conditions: purified protein incubated with dicamba
Description: Alternatively, dicamba decarboxylase activity can be monitored by measuring decarboxylation products other than CO2 using product detection methods. The decarboxylation product of dicamba, 2,5-dichloro anisole or 2,5-DCA (FIG. 1C), is a volatile compound with a flash point of 21° C. To capture this volatile compound for detection, 140 ul of toluene solution is added on top of 1 ml reaction mixture to form a trapping layer in a 1.5 ml eppendorf tube. […] The reaction is kept still at room temperature overnight before being vortex mixed and centrifuged at 14,000 rpm for 15 minutes. The top toluene phase is carefully removed using a micropipette and transferred into a 12×32 mm polypropylene vial (Vial 11 mm) from MicroLiter Analytical Supplies, Inc. (catalog number 11-5300-100). The vial is sealed with Crimp seal (11 mm with FEP/Nat Rubber) from MicroLiter Analytical Supplies, Inc. (catalog number 11-0020A) using a E-Z Crimper™ 11 mm from Wheaton Inc. 1 ul of the toluene mixture is taken from the sealed vials and injected in splitless mode into a GC/MS system for sample analysis (Agilent GC/MS system with a 6890A GC, a 5973N MSD and a CTC CombiPAL auto-sampler or with a 7890A GC, a 5975C MSD and an Agilent GC Sampler 80 auto-sampler).

[2] = Dicamba decarboxylation activity of computationally designed protein variants and their parents; conditions: statement in the description
[3] = 14C assay with IPTG-induced recombinant E. coli cells: 14CO2 captured from [14C]-carboxyl-labeled dicamba; conditions: dicamba decarboxylation activity of the protein of the given SEQ ID NO; High / Low / No
[4] = Saturation mutagenesis of SEQ ID NO:109: dicamba decarboxylation activity of point mutants (carbon dioxide released); conditions: decarboxylation activity (carbon dioxide released) of point mutant compared with unmutated backbone protein; backbone SEQ ID NO: 109

Molecule | enzymatic reaction products detected [1] | dicamba decarboxylase activity (native protein or designed variant) [2] | Enzymatic Detection level [3] | Fold Activity [4]
121 (protein, Dicamba decarboxylase variant clone: DC.12.014) MAIIDCHGHYTTTPKGVEDYRNAQKAAVAKDPSFKGEKGQVVVSDDEIRESIENNQLKMQRERGTDLTIFSPRWDAGGHHIGNEYTSQFWTEHQNDLIRRVCDLFPKNFAPVAQLPQSPGVDPAKSVPEIVRTVEQMGFIGINLNPDPSGGYWKDTSLADRAFYPIYEKMVEYDIPAMIHPRLACNACFHTGLSVGLGADTTGFQQLIMSDVFKDFPSLKIIIPHGGGAVPYHWGRFRGLMQDQGYAPLEESALKNIYFDTCVYHQRGIDLLLDIVPTQNILFASEMIGAVRGIDPETGHNFDDTKRYIDNNTALNAEEKAMIFEGNARRVFSRLKTD | 2,5-DCA was detected | have dicamba decarboxylase activity | High | 1
120 (protein, Dicamba decarboxylase variant clone: DC.12.002) MAIIDCHGHYTTTPKGVETYRNAQKAAVAKDPSFKYEKGQVVVSDDEIRESIENNQLKMQRERGTDLTIFSPRSTAGGHHIGNEYTSQFWTEHQNDLIRRVCDLFPKNFAPVAQLPQSPGVDPAKSVPEIVRTVEQMGFIGINLNPDPSGGYWKDTSLADRAFYPIYEKMVEYDIPAMIHPRNACNDCFHTTGSHALGADTTGFQQLIMSDVFKDFPSLKIIIPHGGGAVPYHWGRFRGLMQDQGYAPLEESALKNIYFDTCVYHQRGIDLLLDIVPTQNILFASEMIGAVRGIDAETGHNFDDTKRYIDNNTALNAEEKAMIFEGNARRVFSRLKTD | 2,5-DCA was detected | have dicamba decarboxylase activity | High | 1.3
122 (protein, Dicamba decarboxylase variant clone: DC.12.103) MAIIDCHGHYTTTPKGVEDYRNAQKAAVAKDPSFKGEKGQVVVSDDEIRESIENNQLKMQRERGTDLTIFSPRSTAGGHHIGNEYTSQFWTEHQNDLIRRVCDLFPKNFAPVAQLPQSPGVDPAKSVPEIVRTVEQMGFIGINLNPDPSGGYWKDTSLADRAFYPIYEKMVEYDIPAMIHPRNACNDCFHTTGSHALGADTTGFQQLIMSDVFKDFPSLKIIIPHGGGAVPYHWGRFRGLMQDQGYAPLEESALKNIYFDTCVYHQRGIDLLLDIVPTQNILFASDMIGAVRGIDPETGHNFDDTKRYIDNNTALNAEEKAMIFEGNARRVFSRLKTD | 2,5-DCA was detected | have dicamba decarboxylase activity | High | 0.9
